# Laboratory results reported in patent US20180057589A1.
# Experiments:
# [1] = biological target: human Notch1 NRR protein (human) (UniProt P46531); test: SPR
# [2] = biological target: mouse Notch1 NRR protein (mouse) (UniProt Q01705); test: SPR
# [3] = biological target: Notch1 on stably transfected NIH-3T3 cells; test: cell-based or functional assay
# [4] = biological target: human Notch1 NRR protein (human) (UniProt P46531); test: ELISA on captured Flag-tagged NRR protein
# [5] = biological target: mouse Notch1 NRR protein (mouse) (UniProt Q01705); test: ELISA on captured Flag-tagged NRR protein
# [6] = biological target: N-myc-Notch1 on K1-CHO cells; test: FACS dot plot α-Myc (PE) against α-NRR1 (FITC), K1-CHO myc-N1 cells, +Dox, panel 2 (other quadrants: upper left 17.1, lower left 26.2, lower right 0.077)
# [7] = biological target: N-myc-Notch2 on K1-CHO cells; test: FACS dot plot α-Myc (PE) against α-NRR1 (FITC), K1-CHO myc-N2 cells, +Dox, panel 3 (other quadrants: upper left 58.6, lower left 41.3, lower right 0.026)
# [8] = biological target: hamster Notch2, endogenous on K1-CHO cells (hamster); test: FACS dot plot α-Myc (PE) against α-NRR1 (FITC), untransfected K1-CHO cells, +Dox, panel 1 (other quadrants: upper left 0.15, upper right 0.034, lower left 99.7)
# [9] = biological target: hamster Notch2, endogenous on K1-CHO cells (hamster); test: FACS dot plot α-Myc (PE) against α-NRR1 (FITC), untransfected K1-CHO cells, -Dox, panel 4 (other quadrants: upper left 0.13, upper right 0.041, lower left 99.7)
# [10] = biological target: N-myc-Notch1 on K1-CHO cells; test: FACS dot plot α-Myc (PE) against α-NRR1 (FITC), K1-CHO myc-N1 cells, -Dox (transgene not induced), panel 5 (other quadrants: upper left 0.72, lower left 99, lower right 0.14)
# [11] = biological target: N-myc-Notch2 on K1-CHO cells; test: FACS dot plot α-Myc (PE) against α-NRR1 (FITC), K1-CHO myc-N2 cells, -Dox (leaky expression per the text), panel 6 (other quadrants: upper left 18, lower left 81.8, lower right 0.1)
# Sequence of mouse Notch1 NRR protein (mouse) (Q01705 1446-1723 limits assumed): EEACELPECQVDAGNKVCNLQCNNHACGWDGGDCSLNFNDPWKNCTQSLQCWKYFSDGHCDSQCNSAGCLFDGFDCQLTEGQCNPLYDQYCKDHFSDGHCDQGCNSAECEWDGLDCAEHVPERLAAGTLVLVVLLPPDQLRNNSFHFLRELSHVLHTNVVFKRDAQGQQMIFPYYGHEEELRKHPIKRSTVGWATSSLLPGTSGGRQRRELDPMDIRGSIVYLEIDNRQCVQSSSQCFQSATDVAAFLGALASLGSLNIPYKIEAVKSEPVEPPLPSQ
# Sequence of human Notch1 NRR protein (human) (P46531 1446-1733 limits assumed): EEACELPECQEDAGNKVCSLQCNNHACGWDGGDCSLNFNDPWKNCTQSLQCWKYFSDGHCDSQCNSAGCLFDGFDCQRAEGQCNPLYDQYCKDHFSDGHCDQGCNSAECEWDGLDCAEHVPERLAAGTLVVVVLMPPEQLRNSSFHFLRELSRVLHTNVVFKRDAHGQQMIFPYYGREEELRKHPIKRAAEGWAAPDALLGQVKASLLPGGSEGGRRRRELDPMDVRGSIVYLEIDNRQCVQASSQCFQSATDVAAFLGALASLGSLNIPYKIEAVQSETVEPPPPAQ
substance,measurement,setting,value
anti-NRR1 (antibody),Kd,[1],3 nM
same,Kd,[2],3 nM
same,Notch reporter (luciferase) in Jag1 co-culture assay: antibody concentration for complete inhibition of Notch1 signaling,[3],80 to 400 ng/mL
same,EC50,[4],0.1 µg/mL
same,EC50,[5],0.1 µg/mL
same,% of cells in the α-Myc-positive / α-NRR1-positive quadrant (upper right),[6],56.6%
same,% of cells in the α-Myc-positive / α-NRR1-positive quadrant (upper right),[7],0.064%
same,% of cells in the α-Myc-negative / α-NRR1-positive quadrant (lower right),[8],0.082%
same,% of cells in the α-Myc-negative / α-NRR1-positive quadrant (lower right),[9],0.12%
same,% of cells in the α-Myc-positive / α-NRR1-positive quadrant (upper right),[10],0.097%
same,% of cells in the α-Myc-positive / α-NRR1-positive quadrant (upper right),[11],0.13%
